Legend:
PHA-stimulated PBMCs = experiment: Cytokine secretion from PHA-stimulated PBMCs treated with plantakines (multiplex Luminex); assay type: cell-based, human
Experimental: The bioactivity of our plantakines IL-37b and IL-38 was assessed by monitoring the secretion of 11 cytokines, generally regarded as inflammatory markers, from PBMCs stimulated with an IA. Freshly isolated human PBMCs were subjected to various treatments-combinations of the IAs with the plantakines at different concentrations. Two different model IAs were used, either the bacterial lipopolysaccharides (LPS) or a lectin from Phaseolus vulgaris (phytohaemagglutinin, PHA); each of the IAs was applied onto cells separately, each IA was applied at two concentrations: LPS at 150 and 300 μg/mL; PHA at 5 and 10 μg/mL. Each IA at each concentration was applied in combination with one of the two plantakines, each of them at three different concentrations: 1, 10 and 100 ng/ml of the monomeric forms present in the purified extracts. Also included were treatments comprised of either IA at their lower concentrations, in combination with both plantakines at 10 ng/ml concentration in order to assess possible synergistic effects. Cells with only IAs applied represented the reference (positive controls for each concentration), cells without any treatment represented the basal level (negative control). The levels of eleven different pro-inflammatory cytokines secreted into the medium from the PBMCs-GM-SCF, IFNγ. TNFα, IL-1α, IL-1β, IL-6, IL-8, IL-22, IL12, IL-17 and IL-10 were compared between the treatments and the controls. We applied Generalized Estimating Equation (GEE) model for the statistical data analysis. This statistical approach allows for nested observations and was used to test the effects of the plantakines IL-37b and IL-38 and their dosage in the context of IA-stimulated PBMCs inflammatory responses.
After isolation, the PBMCs from each donor separately were counted, plated in equal numbers per well and stimulated for 24 h with the applied treatments. Control wells on the plate contained media only (as basal level controls), and LPS and PHA (as positive controls at their corresponding concentrations). After the 24 h treatments stimulation the PBMCs' culture supernatants were used in the multiplex Luminex platform-assisted analysis of the concentrations of the 11 secreted pro-inflammatory cytokines.
The whole blood from 5 random human donors was collected in ACD Vacutainer tubes and immediately processed for isolation of PBMCs by gradient density centrifugation using Lympholyte. […] 5% CO2 and >80% humidity. PBMCs were treated with one of two IAs at 2 concentrations each (LPS at 150 and 300 μg/mL; PHA at 5 and 10 μg/mL) in combination with two test items (plant-produced IL-37b or IL-38) at three concentrations each (1, 10 and 100 ng/ml), based on the monomeric form amounts estimated with densitometry (ImageJ). Each treatment was tested in triplicates. Control wells contained media only (negative control, basal level of detection) and the examined IAs at both tested concentrations as the positive controls. The PBMCs were incubated for 24 hours after the stimulation for analysis of the levels of the secreted cytokines that were determined in the culture supernatant using a multiplex immunoassay (MAGPix®, Luminex), analytes were selected from the Milliplex panel HCYTOMAG-60K, sensitivity range of […]. All parameters of the Milliplex panel cytokines analysis using Luminex platform were validated (Millipore-Sigma).
Non-linear logarithm transformation was performed to address non-normality of distribution of Luminex-derived numeric data. Generalized Estimating Equation (GEE) method was used in the analysis of nested (correlated) structure of the data. Secreted inflammatory cytokine values were used as dependent variables and test item (plantakines) with dosage as independent predictors (factors). Separate analyses were conducted for each of the 11 monitored cytokines and each inflammatory agent/concentration combination. […]

[1] = molecular target: the molecule itself; experiment: self-association (dimers and multimers) seen on SDS-PAGE and western blot
Experimental: Western blots membranes were visualized using the enhanced chemiluminescence (ECL) detection kit (GE Healthcare, Cat. No. RPN2232) and imaged with the DNR Bio-Imaging System MicroChemi (RANCOM A/S, Birkerød, Denmark). Densitometry was performed using the TotalLab TL 100 software (Nonlinear Dynamics, Durham, NC).

B1: plant-produced recombinant human IL-38, mature form C2-W152 with C-terminal 7xHIS tag (ligand)
chain: CSLPMARYYIIKYADQKALYTRDGQLLVGDPVADNCCAEKICILPNRGLARTKVPIFLGIQGGSRCLACVETEEGPSLQLEDVNIEELYKGGEEATRFTFFQSSSGSAFRLEAAAWPGWFLCGPAEPQQPVQLTKESEPSARTKFYFEQSWHHHHHHH
notes: range 2-152; also called rhIL-38; plantakine IL-38
For B1, the “secreted GM-CSF level modulation vs positive control” value (PHA-stimulated PBMCs; 1 ng/mL, PHA 5 μg/mL) was 18.0%, p = 0.403, the “secreted IFNγ level modulation vs positive control” value (PHA-stimulated PBMCs; 1 ng/mL, PHA 5 μg/mL) was −35.6%, p = 0.137 and the “secreted IL-1α level modulation vs positive control” value (PHA-stimulated PBMCs; 1 ng/mL, PHA 5 μg/mL) was −9.5%, p = 0.480. For the same molecule, the “secreted IL-1β level modulation vs positive control” value (PHA-stimulated PBMCs; 1 ng/mL, PHA 5 μg/mL) was −2.0%, p = 0.888, the “secreted IL-6 level modulation vs positive control” value (PHA-stimulated PBMCs; 1 ng/mL, PHA 5 μg/mL) was −5.8%, p = 0.798 and the “secreted IL-8 level modulation vs positive control” value (PHA-stimulated PBMCs; 1 ng/mL, PHA 5 μg/mL) was −11.3%, p = 0.736. The “secreted IL-10 level modulation vs positive control” value (PHA-stimulated PBMCs; 1 ng/mL, PHA 5 μg/mL) was 17.4%, p = 0.244, the “secreted IL-12 level modulation vs positive control” value (PHA-stimulated PBMCs; 1 ng/mL, PHA 5 μg/mL) was 63.3%, p = 0.020 and the “secreted IL-17 level modulation vs positive control” value (PHA-stimulated PBMCs; 1 ng/mL, PHA 5 μg/mL) was 4.1%, p = 0.807. For the same molecule, the “secreted IL-22 level modulation vs positive control” value (PHA-stimulated PBMCs; 1 ng/mL, PHA 5 μg/mL) was 8.1%, p = 0.631, the “secreted TNFα level modulation vs positive control” value (PHA-stimulated PBMCs; 1 ng/mL, PHA 5 μg/mL) was 46.2%, p = 0.173 and the “secreted GM-CSF level modulation vs positive control” value (PHA-stimulated PBMCs; 1 ng/mL, PHA 10 μg/mL) was 1.5%, p = 0.881. For the same molecule, the “secreted IFNγ level modulation vs positive control” value (PHA-stimulated PBMCs; 1 ng/mL, PHA 10 μg/mL) was −36.9%, p = 0.164, the “secreted IL-1α level modulation vs positive control” value (PHA-stimulated PBMCs; 1 ng/mL, PHA 10 μg/mL) was −5.8%, p = 0.469 and the “secreted IL-1β level modulation vs positive control” value (PHA-stimulated PBMCs; 1 ng/mL, PHA 10 μg/mL) was 0.0%, p = 1.000. The “secreted IL-6 level modulation vs positive control” value (PHA-stimulated PBMCs; 1 ng/mL, PHA 10 μg/mL) was −2.0%, p = 0.898, the “secreted IL-8 level modulation vs positive control” value (PHA-stimulated PBMCs; 1 ng/mL, PHA 10 μg/mL) was −5.8%, p = 0.823 and the “secreted IL-10 level modulation vs positive control” value (PHA-stimulated PBMCs; 1 ng/mL, PHA 10 μg/mL) was 22.1%, p = 0.033. The “secreted IL-12 level modulation vs positive control” value (PHA-stimulated PBMCs; 1 ng/mL, PHA 10 μg/mL) was 22.2%, p = 0.476, the “secreted IL-17 level modulation vs positive control” value (PHA-stimulated PBMCs; 1 ng/mL, PHA 10 μg/mL) was 22.1%, p = 0.166 and the “secreted IL-22 level modulation vs positive control” value (PHA-stimulated PBMCs; 1 ng/mL, PHA 10 μg/mL) was 86.8%, p < 0.001. The “secreted TNFα level modulation vs positive control” value (PHA-stimulated PBMCs; 1 ng/mL, PHA 10 μg/mL) was 55.3%, p = 0.411, the “secreted IFNγ level modulation vs positive control” value (PHA-stimulated PBMCs; 10 ng/mL, PHA 5 μg/mL) was −53.2%, p = 0.032 and the “secreted IL-1α level modulation vs positive control” value (PHA-stimulated PBMCs; 10 ng/mL, PHA 5 μg/mL) was 4.1%, p = 0.690. The “secreted IL-1β level modulation vs positive control” value (PHA-stimulated PBMCs; 10 ng/mL, PHA 5 μg/mL) was 4.1%, p = 0.801, the “secreted IL-6 level modulation vs positive control” value (PHA-stimulated PBMCs; 10 ng/mL, PHA 5 μg/mL) was 10.5%, p = 0.538 and the “secreted IL-8 level modulation vs positive control” value (PHA-stimulated PBMCs; 10 ng/mL, PHA 5 μg/mL) was 8.3%, p = 0.772. For the same molecule, the “secreted IL-10 level modulation vs positive control” value (PHA-stimulated PBMCs; 10 ng/mL, PHA 5 μg/mL) was 15.0%, p = 0.224, the “secreted IL-12 level modulation vs positive control” value (PHA-stimulated PBMCs; 10 ng/mL, PHA 5 μg/mL) was 107.0%, p = 0.079 and the “secreted IL-17 level modulation vs positive control” value (PHA-stimulated PBMCs; 10 ng/mL, PHA 5 μg/mL) was 24.6%, p = 0.215. For the same molecule, the “secreted IL-22 level modulation vs positive control” value (PHA-stimulated PBMCs; 10 ng/mL, PHA 5 μg/mL) was 55.8%, p < 0.001, the “secreted TNFα level modulation vs positive control” value (PHA-stimulated PBMCs; 10 ng/mL, PHA 5 μg/mL) was 49.2%, p = 0,123 and the “secreted GM-CSF level modulation vs positive control” value (PHA-stimulated PBMCs; 10 ng/mL, PHA 10 μg/mL) was 42.6%, p = 0.016. The “secreted IFNγ level modulation vs positive control” value (PHA-stimulated PBMCs; 10 ng/mL, PHA 10 μg/mL) was −53.2%, p = 0.046, the “secreted IL-1α level modulation vs positive control” value (PHA-stimulated PBMCs; 10 ng/mL, PHA 10 μg/mL) was −2.0%, p = 0.893 and the “secreted IL-1β level modulation vs positive control” value (PHA-stimulated PBMCs; 10 ng/mL, PHA 10 μg/mL) was 4.1%, p = 0.761. For the same molecule, the “secreted IL-6 level modulation vs positive control” value (PHA-stimulated PBMCs; 10 ng/mL, PHA 10 μg/mL) was 6.2%, p = 0.722, the “secreted IL-8 level modulation vs positive control” value (PHA-stimulated PBMCs; 10 ng/mL, PHA 10 μg/mL) was −3.9%, p = 0.886 and the “secreted IL-10 level modulation vs positive control” value (PHA-stimulated PBMCs; 10 ng/mL, PHA 10 μg/mL) was 32.3%, p < 0.001. The “secreted IL-12 level modulation vs positive control” value (PHA-stimulated PBMCs; 10 ng/mL, PHA 10 μg/mL) was 8.8%, p = 0.750, the “secreted IL-17 level modulation vs positive control” value (PHA-stimulated PBMCs; 10 ng/mL, PHA 10 μg/mL) was 19.7%, p = 0.188 and the “secreted IL-22 level modulation vs positive control” value (PHA-stimulated PBMCs; 10 ng/mL, PHA 10 μg/mL) was 61.7%, p = 0.061. For the same molecule, the “secreted TNFα level modulation vs positive control” value (PHA-stimulated PBMCs; 10 ng/mL, PHA 10 μg/mL) was 166.4%, p = 0.105, the “secreted IFNγ level modulation vs positive control” value (PHA-stimulated PBMCs; 100 ng/mL, PHA 5 μg/mL) was 6.2%, p = 0.856 and the “secreted IL-1α level modulation vs positive control” value (PHA-stimulated PBMCs; 100 ng/mL, PHA 5 μg/mL) was 46.2%, p = 0.015. The “secreted IL-1β level modulation vs positive control” value (PHA-stimulated PBMCs; 100 ng/mL, PHA 5 μg/mL) was 43.3%, p = 0.019, the “secreted IL-6 level modulation vs positive control” value (PHA-stimulated PBMCs; 100 ng/mL, PHA 5 μg/mL) was 15.0%, p = 0.432 and the “secreted IL-8 level modulation vs positive control” value (PHA-stimulated PBMCs; 100 ng/mL, PHA 5 μg/mL) was 10.5%, p = 0.731. For the same molecule, the “secreted IL-10 level modulation vs positive control” value (PHA-stimulated PBMCs; 100 ng/mL, PHA 5 μg/mL) was 15.0%, p = 0.275, the “secreted IL-12 level modulation vs positive control” value (PHA-stimulated PBMCs; 100 ng/mL, PHA 5 μg/mL) was 123.0%, p < 0.001 and the “secreted IL-17 level modulation vs positive control” value (PHA-stimulated PBMCs; 100 ng/mL, PHA 5 μg/mL) was 29.7%, p = 0.107. For the same molecule, the “secreted IL-22 level modulation vs positive control” value (PHA-stimulated PBMCs; 100 ng/mL, PHA 5 μg/mL) was 15.3%, p = 0.347, the “secreted TNFα level modulation vs positive control” value (PHA-stimulated PBMCs; 100 ng/mL, PHA 5 μg/mL) was 85.9%, p = 0.026 and the “secreted IFNγ level modulation vs positive control” value (PHA-stimulated PBMCs; 100 ng/mL, PHA 10 μg/mL) was 6.2%, p = 0.852. For the same molecule, the “secreted IL-1α level modulation vs positive control” value (PHA-stimulated PBMCs; 100 ng/mL, PHA 10 μg/mL) was 40.5%, p < 0.001, the “secreted IL-1β level modulation vs positive control” value (PHA-stimulated PBMCs; 100 ng/mL, PHA 10 μg/mL) was 46.2%, p = 0.001 and the “secreted IL-6 level modulation vs positive control” value (PHA-stimulated PBMCs; 100 ng/mL, PHA 10 μg/mL) was 4.1%, p = 0.810. The “secreted IL-8 level modulation vs positive control” value (PHA-stimulated PBMCs; 100 ng/mL, PHA 10 μg/mL) was −2.0%, p = 0.943, the “secreted IL-10 level modulation vs positive control” value (PHA-stimulated PBMCs; 100 ng/mL, PHA 10 μg/mL) was 22.1%, p = 0.033 and the “secreted IL-12 level modulation vs positive control” value (PHA-stimulated PBMCs; 100 ng/mL, PHA 10 μg/mL) was 74.3%, p = 0.002. The “secreted IL-17 level modulation vs positive control” value (PHA-stimulated PBMCs; 100 ng/mL, PHA 10 μg/mL) was 55.3%, p = 0.003, the “secreted IL-22 level modulation vs positive control” value (PHA-stimulated PBMCs; 100 ng/mL, PHA 10 μg/mL) was 50.0%, p = 0.020 and the “secreted TNFα level modulation vs positive control” value (PHA-stimulated PBMCs; 100 ng/mL, PHA 10 μg/mL) was 252.5%, p = 0.017. For the same molecule, the “Decreased secretion: number of treatments with statistically significant modulation” value (PHA-stimulated PBMCs; PHA 5 μg/mL) was 1, the “Increased secretion: number of treatments with statistically significant modulation” value (PHA-stimulated PBMCs; PHA 5 μg/mL) was 7 and the “Decreased secretion: number of treatments with statistically significant modulation” value (PHA-stimulated PBMCs; PHA 10 μg/mL) was 1. For the same molecule, the “Increased secretion: number of treatments with statistically significant modulation” value (PHA-stimulated PBMCs; PHA 10 μg/mL) was 12 and the binding result [1] was “binds”.
